Data as given in US20250262210A1 (TRUSTEES OF COLUMBIA UNIVERSITY IN THE CITY OF NEW YORK, published 2025).
Substitutions are numbered along the chain they refer to.

B1: ADAM 15 (other, human, UniProt Q13444 207-863, looked up)
chain: DVVTETKTVELVIVADHSEAQKYRDFQHLLNRTLEVALLLDTFFRPLNVRVALVGLEAWTQRDLVEISPNPAVTLENFLHWRRAHLLPRLPHDSAQLVTGTSFSGPTVGMAIQNSICSPDFSGGVNMDHSTSILGVASSIAHELGHSLGLDHDLPGNSCPCPGPAPAKTCIMEASTDFLPGLNFSNCSRRALEKALLDGMGSCLFERLPSLPPMAAFCGNMFVEPGEQCDCGFLDDCVDPCCDSLTCQLRPGAQCASDGPCCQNCQLRPSGWQCRPTRGDCDLPEFCPGDSSQCPPDVSLGDGEPCAGGQAVCMHGRCASYAQQCQSLWGPGAQPAAPLCLQTANTRGNAFGSCGRNPSGSYVSCTPRDAICGQLQCQTGRTQPLLGSIRDLLWETIDVNGTELNCSWVHLDLGSDVAQPLLTLPGTACGPGLVCIDHRCQRVDLLGAQECRSKCHGHGVCDSNRHCYCEEGWAPPDCTTQLKATSSLTTGLLLSLLVLLVLVMLGASYWYRARLHQRLCQLKGPTCQYRAAQSGPSERPGPPQRALLARGTKQASALSFPAPPSRPLPPDPVSKRLQAELADRPNPPTRPLPADPVVRSPKSQGPAKPPPPRKPLPADPQGRCPSGDLPGPGAGIPPLVVPSRPAPPPPTVSSLYL
notes: Printed as ADAM 15; read as ADAM15
B2: AHR (other, human, UniProt P35869 11-848, looked up)
chain: ASRKRRKPVQKTVKPIPAEGIKSNPSKRHRDRLNTELDRLASLLPFPQDVINKLDKLSVLRLSVSYLRAKSFFDVALKSSPTERNGGQDNCRAANFREGLNLQEGEFLLQALNGFVLVVTTDALVFYASSTIQDYLGFQQSDVIHQSVYELIHTEDRAEFQRQLHWALNPSQCTESGQGIEEATGLPQTVVCYNPDQIPPENSPLMERCFICRLRCLLDNSSGFLAMNFQGKLKYLHGQKKKGKDGSILPPQLALFAIATPLQPPSILEIRTKNFIFRTKHKLDFTPIGCDAKGRIVLGYTEAELCTRGSGYQFIHAADMLYCAESHIRMIKTGESGMIVFRLLTKNNRWTWVQSNARLLYKNGRPDYIIVTQRPLTDEEGTEHLRKRNTKLPFMFTTGEAVLYEATNPFPAIMDPLPLRTKNGTSGKDSATTSTLSKDSLNPSSLLAAMMQQDESIYLYPASSTSSTAPFENNFFNESMNECRNWQDNTAPMGNDTILKHEQIDQPQDVNSFAGGHPGLFQDSKNSDLYSIMKNLGIDFEDIRHMQNEKFFRNDFSGEVDFRDIDLTDEILTYVQDSLSKSPFIPSDYQQQQSLALNSSCMVQEHLHLEQQQQHHQKQVVVEPQQQLCQKMKHMQVNGMFENWNSNQFVPFNCPQQDPQQYNVFTDLHGISQEFPYKSEMDSMPYTQNFISCNQPVLPQHSKCTELDYPMGSFEPSPYPTTSSLEDFVTCLQLPENQKHGLNPQSAIITPQTCYAGAVSMYQCQPEPQHTHVGQMQYNPVLPGQQAFLNKFQNGVLNETYPAELNNINNTQTTTHLQPLHHPSEARPFPDLTSSGFL
B3: AMOTL2 (other, human, UniProt Q9Y2J4 1-779, looked up)
chain: MRTLEDSSGTVLHRLIQEQLRYGNLTETRTLLAIQQQALRGGAGTGGTGSPQASLEILAPEDSQVLQQATRQEPQGQEHQGGENHLAENTLYRLCPQPSKGEELPTYEEAKAHSQYYAAQQAGTRPHAGDRDPRGAPGGSRRQDEALRELRHGHVRSLSERLLQLSLERNGARAPSHMSSSHSFPQLARNQQGPPLRGPPAEGPESRGPPPQYPHVVLAHETTTAVTDPRYRARGSPHFQHAEVRILQAQVPPVFLQQQQQYQYLQQSQEHPPPPHPAALGHGPLSSLSPPAVEGPVSAQASSATSGSAHLAQMEAVLRENARLQRDNERLQRELESSAEKAGRIEKLESEIQRLSEAHESLTRASSKREALEKTMRNKMDSEMRRLQDFNRDLRERLESANRRLASKTQEAQAGSQDMVAKLLAQSYEQQQEQEKLEREMALLRGAIEDQRRRAELLEQALGNAQGRAARAEEELRKKQAYVEKVERLQQALGQLQAACEKREQLELRLRTRLEQELKALRAQQRQAGAPGGSSGSGGSPELSALRLSEQLREKEEQILALEADMTKWEQKYLEERAMRQFAMDAAATAAAQRDTTLIRHSPQPSPSSSFNEGLLTGGHRHQEMESRLKVLHAQILEKDAVIKVLQQRSRRDPGKAIQGSLRPAKSVPSVFAAAAAGTQGWQGLSSSERQTADAPARLTTDRAPTEEPVVTAPPAAHAKHGSRDGSTQTEGPPDSTSTCLPPEPDSLLGCSSSQRAASLDSVATSRVQDLSDMVEILI
B4: APEH (other, human, UniProt P13798 1-732, looked up)
chain: MERQVLLSEPEEAAALYRGLSRQPALSAACLGPEVTTQYGGQYRTVHTEWTQRDLERMENIRFCRQYLVFHDGDSVVFAGPAGNSVETRGELLSRESPSGTMKAVLRKAGGTGPGEEKQFLEVWEKNRKLKSFNLSALEKHGPVYEDDCFGCLSWSHSETHLLYVAEKKRPKAESFFQTKALDVSASDDEIARLKKPDQAIKGDQFVFYEDWGENMVSKSIPVLCVLDVESGNISVLEGVPENVSPGQAFWAPGDAGVVFVGWWHEPFRLGIRFCTNRRSALYYVDLIGGKCELLSDDSLAVSSPRLSPDQCRIVYLQYPSLIPHHQCSQLCLYDWYTKVTSVVVDVVPRQLGENFSGIYCSLLPLGCWSADSQRVVFDSAQRSRQDLFAVDTQVGTVTSLTAGGSGGSWKLLTIDQDLMVAQFSTPSLPPTLKVGFLPSAGKEQSVLWVSLEEAEPIPDIHWGIRVLQPPPEQENVQYAGLDFEAILLQPGSPPDKTQVPMVVMPHGGPHSSFVTAWMLFPAMLCKMGFAVLLVNYRGSTGFGQDSILSLPGNVGHQDVKDVQFAVEQVLQEEHFDASHVALMGGSHGGFISCHLIGQYPETYRACVARNPVINIASMLGSTDIPDWCVVEAGFPFSSDCLPDLSVWAEMLDKSPIRYIPQVKTPLLLMLGQEDRRVPFKQGMEYYRALKTRNVPVRLLLYPKSTHALSEVEVESDSFMNAVLWLRTHLGS
B5: ARAF (other, human, UniProt P10398 1-606, looked up)
chain: MEPPRGPPANGAEPSRAVGTVKVYLPNKQRTVVTVRDGMSVYDSLDKALKVRGLNQDCCVVYRLIKGRKTVTAWDTAIAPLDGEELIVEVLEDVPLTMHNFVRKTFFSLAFCDFCLKFLFHGFRCQTCGYKFHQHCSSKVPTVCVDMSTNRQQFYHSVQDLSGGSRQHEAPSNRPLNELLTPQGPSPRTQHCDPEHFPFPAPANAPLQRIRSTSTPNVHMVSTTAPMDSNLIQLTGQSFSTDAAGSRGGSDGTPRGSPSPASVSSGRKSPHSKSPAEQRERKSLADDKKKVKNLGYRDSGYYWEVPPSEVQLLKRIGTGSFGTVFRGRWHGDVAVKVLKVSQPTAEQAQAFKNEMQVLRKTRHVNILLFMGFMTRPGFAIITQWCEGSSLYHHLHVADTRFDMVQLIDVARQTAQGMDYLHAKNIIHRDLKSNNIFLHEGLTVKIGDFGLATVKTRWSGAQPLEQPSGSVLWMAAEVIRMQDPNPYSFQSDVYAYGVVLYELMTGSLPYSHIGCRDQIIFMVGRGYLSPDLSKISSNCPKAMRRLLSDCLKFQREERPLFPQILATIELLQRSLPKIERSASEPSLHRTQADELPACLLSAARLVP

Target: T1, LZTR1 R810W-FLAG (human, UniProt Q8N653 1-840)
T1 construct: Stably expressed in U87 cells by lentivirus; also called LZTR1-FLAG-R810W; LZTR1 RW; not shown: FLAG tag
T1 sequence (looked up): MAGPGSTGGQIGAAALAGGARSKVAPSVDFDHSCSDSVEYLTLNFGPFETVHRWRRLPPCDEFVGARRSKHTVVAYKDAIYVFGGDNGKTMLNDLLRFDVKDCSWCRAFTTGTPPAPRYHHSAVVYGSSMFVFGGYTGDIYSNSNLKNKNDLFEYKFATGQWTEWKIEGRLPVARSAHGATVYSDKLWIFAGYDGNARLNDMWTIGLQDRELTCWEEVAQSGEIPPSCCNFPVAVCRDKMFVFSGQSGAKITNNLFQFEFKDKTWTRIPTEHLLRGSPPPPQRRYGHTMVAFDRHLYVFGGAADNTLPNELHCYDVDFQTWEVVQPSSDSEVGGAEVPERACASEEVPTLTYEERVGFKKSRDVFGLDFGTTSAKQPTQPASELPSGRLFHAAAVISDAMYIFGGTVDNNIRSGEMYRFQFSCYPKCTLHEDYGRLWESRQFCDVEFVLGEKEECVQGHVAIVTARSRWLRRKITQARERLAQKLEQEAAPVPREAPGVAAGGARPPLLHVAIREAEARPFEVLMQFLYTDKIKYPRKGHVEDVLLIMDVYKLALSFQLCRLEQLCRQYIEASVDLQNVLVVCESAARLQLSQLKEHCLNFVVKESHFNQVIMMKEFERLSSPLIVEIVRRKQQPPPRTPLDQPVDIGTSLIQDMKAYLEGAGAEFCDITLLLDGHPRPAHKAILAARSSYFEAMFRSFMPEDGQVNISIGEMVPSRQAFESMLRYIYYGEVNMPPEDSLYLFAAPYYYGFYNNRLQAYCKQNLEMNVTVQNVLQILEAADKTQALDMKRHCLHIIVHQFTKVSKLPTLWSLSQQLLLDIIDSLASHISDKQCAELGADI
Assay: IP/MS, LZTR1 R810W-FLAG, U87
Method: (§1) Lysates were immunoprecipitated with FLAG affinity matrix and eluted with FLAG peptide. […] Protein gel slices were excised and in-gel digestion performed as previously described (83), with minor modifications. Gel slices were washed with 1:1 A cetonitrile and 100 mM ammonium bicarbonate for 30 min then dehydrated with 100% acetonitrile for 10 min until shrunk. The excess acetonitrile was then removed and the slices dried in speed-vacuum at room temperature for 10 min. Gel slices were reduced with 5 mM DTT for 30 min at 56° C. in an air thermostat, cooled down to room temperature, and alkylated with 11 mM IAA for 30 min with no light. Gel slices were then washed with 100 mM of ammonium bicarbonate and 100% acetonitrile for 10 min each. Excess acetonitrile was removed and dried in a speed-vacuum for 10 min at room temperature and the gel slices were re-hydrated in a solution of 25 ng/μl trypsin in 50 mM ammonium bicarbonate for 30 min on ice and digested overnight at 37° C. in an air thermostat. Digested peptides were collected and further extracted from gel slices in extraction buffer (1:2 ratio by volume of 5% formic acid:acetonitrile) at high speed, shaking in an air thermostat. The supernatants from both extractions were combined and dried in a speed-vacuum. Peptides were dissolved in 3% acetonitrile/0.1% formic acid. Desalted peptides were injected in an EASY-Spray™ PepMap™ RSLC C18 50 cm×[…] column (Thermo Scientific) connected to an Orbitrap Fusion™ Tribrid™ (Thermo Scientific) as described in “Global ubiquitylation enrichment” section. The following modifications were used for protein identification and quantification: oxidation of methionine (M), acetylation of the protein N-terminus, and deamination for asparagine or glutamine (NQ). Results obtained from MaxQuant were assembled in Scaffold for data visualization.

Binding result, binds:
B1
B2
B3
B4
B5

Target: T2, LZTR1-FLAG (human, UniProt Q8N653 1-840)
T2 construct: Expressed in HEK 293T, HeLa or U87 cells; used as cell lysate; also called LZTR1 wild type-FLAG; LZTR1 WT; not shown: FLAG tag at the C-terminus
T2 sequence (looked up): T1 sequence (looked up) with W810R
Assay: IP/MS, LZTR1 wild type-FLAG, U87
Method: as §1

Binding result, binds:
B1
B2
B3
B4
